Test results as given in patent publication US20030148958A1 (PROCTER AND GAMBLE, published 2003).
Ends that are not written are not given here.

T1: corticotropin releasing factor 2 receptor
T1 sequence (Q13324 whole entry, species assumed, looked up): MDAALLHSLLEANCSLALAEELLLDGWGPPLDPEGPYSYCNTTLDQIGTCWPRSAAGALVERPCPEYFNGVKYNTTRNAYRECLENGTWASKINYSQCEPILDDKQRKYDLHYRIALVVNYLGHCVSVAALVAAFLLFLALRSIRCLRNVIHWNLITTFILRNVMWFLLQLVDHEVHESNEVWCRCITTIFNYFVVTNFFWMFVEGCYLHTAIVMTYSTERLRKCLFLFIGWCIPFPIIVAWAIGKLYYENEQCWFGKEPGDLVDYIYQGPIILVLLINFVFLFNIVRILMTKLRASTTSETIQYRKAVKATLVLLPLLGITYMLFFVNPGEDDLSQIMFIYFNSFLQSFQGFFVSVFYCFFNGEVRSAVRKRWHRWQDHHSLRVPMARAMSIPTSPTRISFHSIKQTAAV


How the values were obtained:
[1] = target: T1, corticotropin releasing factor 2 …; experiment: cell-based or functional assay
[2] = target: corticotropin releasing factor 1 receptor; experiment: cell-based or functional assay
Throughout, for CRF1R Emax: reference of the scale not given here.
Throughout, for CRF2R Emax: reference of the scale not given here.

Row | Binder | CRF2R EC50 [1] | CRF2R Emax [1] | CRF1R EC50 [2] | CRF1R Emax [2]
1 | IVLSLDVPIGLLQILLEQERAEAAREQATTNARILARV-NH2 [SEQ ID NO 113] | 11.3 nM | 98% | > 100 nM | 4%
2 | IVLSLDVPIGLLQILLEQTKARAAREQATTNARILARV-NH2 [SEQ ID NO 129] | 3.83 nM | – | > 100 nM | –
3 | IVLSLDVPIGLLQILLEQAKARAAREQATTNARILARV-NH2 [SEQ ID NO 127] | 7.79 nM | – | > 100 nM | –
4 | IVLSLDVPIGLLQILLEQARQRAAREQATTNARILARV-NH2 [SEQ ID NO 114] | 3.42 nM | 100% | > 100 nM | 6%
5 | ZGPPISIDLPFQLLRKMIEIEKQEKEKQQATNNRLLLATV (C-terminal amide) [SEQ ID NO 12] | 9.72 nM | 91% | 928 nM | 73%
6 | ZGPPISIDLPFQLLRKMIEIEKQEKEKQQATNNRLLLDTI (C-terminal amide) [SEQ ID NO 14] | 6.33 nM | 90% | 109 nM | 92%
7 | ZGPPISIDLPFQLLRKMIEIEKQEKEKQQATTNRLLLDTI (C-terminal amide) [SEQ ID NO 13] | 3.88 nM | 79% | 97.7 nM | 69%
8 | IVLSLDVPIGLLQILLEQAARAAREQATTNARILARV-NH2 [SEQ ID NO 135] | > 100 nM | 76% | > 100 nM | 6%
9 | IVLSLDVPIGLLQILLEQAAAAREQATTNARILARV-NH2 [SEQ ID NO 134] | > 100 nM | 19% | > 100 nM | 7%
10 | IVLSLDVPIGLLQILLEQARAEAAREQATTNARILARV-NH2 [SEQ ID NO 122] | 3.31 nM | 97% | 1000 nM | 10.7%
11 | IVLSLDVPIGLLQILLEQAAREQATTNARILARV-NH2 [SEQ ID NO 138] | 59 nM | 46% | > 100 nM | 5%
12 | IVLSLDVPIGLLQILLEQAKQEAAREQATTNARILARV-NH2 [SEQ ID NO 124] | 3.49 nM | 94% | > 100 nM | 6%
13 | IVLSLDVPIGLLQILLEQTKANAAREQATTVARILARV-NH2 [SEQ ID NO 116] | 100 nM | 26.4% | 100 nM | 4.8%
14 | IVLSLDVPIGLLQILLEQRRAAREQATTNARILARV-NH2 [SEQ ID NO 133] | 12.2 nM | 88% | > 100 nM | 4%
15 | IVLSLDVPIGLLQILLEQARADAAREQATTNARILARV-NH2 [SEQ ID NO 130] | 8.57 nM | 92% | > 100 nM | 9%
16 | IVLSLDVPIGLLQILLEQERQEAAREQATTNARILARV-NH2 [SEQ ID NO 118] | 14.6 nM | 100% | > 100 nM | 5%

Row | Binder | CRF2R EC50 [1] | CRF2R Emax [1] | CRF1R EC50 [2] | CRF1R Emax [2]
17 | IVLSLDVPIGLLQILLEQEKQRAAREQATTNARILARV-NH2 [SEQ ID NO 115] | 13.6 nM | 98% | > 100 nM | 7%
18 | IVLSLDVPIGLLQILLEQTRADAAREQATTNARILARV-NH2 [SEQ ID NO 126] | 13 nM | 91% | > 100 nM | 7%
19 | IVLSLDVPIGLLQILLEQTKARAAREQATTNARILARV-NH2 [SEQ ID NO 117] | 9.41 nM | – | 100 nM | –
20 | IVLSLEVPIGLLQILLEQARARAAREQATTNARILARV-NH2 [SEQ ID NO 120] | 69.9 nM | 100% | 100 nM | 7%
21 | IVLSLDVPIGLLQILLEQEKEKKRKETNARILARV-NH2 [SEQ ID NO 132] | 7.53 nM | 88% | > 100 nM | 8%
22 | IVLSLDVPIGLLQILLEQRAAREQATTNARILARV-NH2 [SEQ ID NO 136] | 23.4 nM | 68% | > 100 nM | 8%
23 | IVLSLDVPIGLLQILLEQTRARAAREQATTNARILARV-NH2 [SEQ ID NO 128] | 2.85 nM | 98% | > 100 nM | 8%
24 | IVLSLDVPIGLLQILLEQAAAREQATTNARILARV-NH2 [SEQ ID NO 139] | 42.6 nM | 60% | > 100 nM | 4%
25 | IVLSLDVPIGLLQILLEQARQEAAREQATTNARILARV-NH2 [SEQ ID NO 123] | 3.49 nM | 93.8% | > 1000 nM | 9.6%
26 | IVLSLDVPIGLLQILLEQEKQEAAREQATTNARILARV-NH2 [SEQ ID NO 125] | 4.47 nM | 99% | > 100 nM | 9%
27 | IVLSLDVPIGLLQILLEQERARAAREQATTNARILARV-NH2 [SEQ ID NO 119] | 3.57 nM | 95% | > 100 nM | 3%
28 | IVLSLDVPIGLLQILLEQAKADAAREQATTNARILARV-NH2 [SEQ ID NO 131] | 5.25 nM | 91% | > 100 nM | 8%
29 | IVLSLDVPIGLLQILLEQARAAAREQATTNARILARV-NH2 [SEQ ID NO 141] | > 100 nM | 29% | > 100 nM | 7%
30 | IVLSLDVPIGLLQILLEQRARAAREQATTNARILARV-NH2 [SEQ ID NO 137] | 36.9 nM | 100% | > 100 nM | 4%
31 | ZGPPISIDLSLELLRKMIEIEKQEKEKQQATTNARILARV (C-terminal amide) [SEQ ID NO 142] | 9.08 nM | 77% | 43.5 nM | 85.3%
